This passage reports Binding affinity results from patent US20250011363A1, “OPTIMIZED SHORTENED PEPTIDE THAT BINDS TO ACETYLCHOLINE RECEPTOR, AND USE THEREOF” (SKINMED CO., LTD., priority 2021, published 2025).

This assay has as its target acetylcholine receptor (Homo sapiens, UniProt P02708). The assay is described as follows: SPR binding affinity (RU) of optimized 5mer/6mer/7mer peptides, Examples 6-7. The following applies: SPR, peptides tested at 10 μM. On the procedure: Based on the frequencies of occurrence of the top 7 amino acids from Table 7 in Example 5, 600 peptides comprising these amino acids (top combinations) and those comprising the 13 less frequently occurring amino acids (bottom combinations) were synthesized for each series of 5mer, 6mer-1, and 6mer-2. The binding affinity of each sequence for the acetylcholine receptor was measured using Surface Plasmon Resonance (SPR) analysis method. The peptides were tested at a concentration of 10 μM. Additionally, the average binding affinities of the top and bottom combinations in each series are depicted in FIGS. 5-7.
Representative peptides identified in Example 6, two in each library, including 5mers (73, 311) and 6mers-1 (43, 210) and 6mers-2 (136, 233), were compared with the pre-optimized 6mer, 5mer-ND, and Synake.

The mark [1] stands for this setting: Resonance Units, 5mer Bottom sequence (bottom combinations).

acetylcholine receptor, sequence (P02708 21-457): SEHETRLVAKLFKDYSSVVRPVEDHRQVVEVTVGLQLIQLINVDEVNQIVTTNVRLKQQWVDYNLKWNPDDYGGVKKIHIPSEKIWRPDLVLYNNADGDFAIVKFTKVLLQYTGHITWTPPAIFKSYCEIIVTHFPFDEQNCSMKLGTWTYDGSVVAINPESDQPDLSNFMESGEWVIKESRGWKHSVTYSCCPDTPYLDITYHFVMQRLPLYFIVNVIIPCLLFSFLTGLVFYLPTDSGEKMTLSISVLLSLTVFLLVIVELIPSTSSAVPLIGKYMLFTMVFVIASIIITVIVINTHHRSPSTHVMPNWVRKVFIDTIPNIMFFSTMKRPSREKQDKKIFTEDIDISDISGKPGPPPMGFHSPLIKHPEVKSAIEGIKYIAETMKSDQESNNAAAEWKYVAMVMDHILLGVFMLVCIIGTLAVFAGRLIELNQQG

Take 5mer-686 (RFNIR): the Binding affinity under setting [1] is on record as 18 Ru.

With 5mer-687 (RMEIR), under setting [1], the Binding affinity is recorded as 22 Ru.

On to 5mer-688 (RPHFK), for which, under setting [1], the Binding affinity stood at 31 Ru.

For the substance 5mer-689 (RFSDK), the Binding affinity under setting [1] turned out to be 20 Ru.

In the case of 5mer-690 (RAEIK), the Binding affinity under setting [1] was 12 Ru.

Consider 5mer-691 (KEWEK), for which the Binding affinity under setting [1] is 16 Ru.

For 5mer-692 (RDHWK), under setting [1], the Binding affinity worked out at 15 Ru.

Take 5mer-693 (RPSKK): the Binding affinity under setting [1] is recorded as 17 Ru.

With 5mer-694 (KNNAR), the Binding affinity under setting [1] was determined as 24 Ru.

As for 5mer-695 (KKPDR), under setting [1], the Binding affinity is reported as 26 Ru.

Take 5mer-696 (RCEHR): the Binding affinity under setting [1] is given as 11 Ru.

In the case of 5mer-697 (KASKK), the Binding affinity under setting [1] was determined as 25 Ru.

Turning to 5mer-698 (KFDWK), the Binding affinity under setting [1] was 12 Ru.

As for 5mer-699 (KKNER), under setting [1], the Binding affinity amounted to 12 Ru.

As to 5mer-700 (RAWER), the Binding affinity under setting [1] was 17 Ru.

As for 5mer-701 (RNHNK), the Binding affinity under setting [1] is 22 Ru.

Turning to 5mer-702 (KISHK), the Binding affinity under setting [1] was found to be 30 Ru.

Regarding 5mer-703 (KPNWR), the Binding affinity under setting [1] is given as 22 Ru.

5mer-704 (RFMGK): under setting [1], the Binding affinity came out at 28 Ru.

On to 5mer-705 (RHAKK), for which the Binding affinity under setting [1] came to 15 Ru.

Turning to 5mer-706 (RKMAK), under setting [1], the Binding affinity is listed as 27 Ru.

With 5mer-707 (KIEAK), the Binding affinity under setting [1] amounted to 32 Ru.

As to 5mer-708 (KPKAR), under setting [1], the Binding affinity came out at 20 Ru.

In the case of 5mer-709 (RHTIR), the Binding affinity under setting [1] worked out at 27 Ru.

In the case of 5mer-710 (KEKAR), the Binding affinity under setting [1] is 21 Ru.

As to 5mer-711 (KECIK), the Binding affinity under setting [1] stood at 32 Ru.

As to 5mer-712 (RADFK), the Binding affinity under setting [1] is 18 Ru.

For 5mer-713 (KYPKK), the Binding affinity under setting [1] is reported as 16 Ru.

In the case of 5mer-714 (RPCAK), the Binding affinity under setting [1] was 32 Ru.

Regarding 5mer-715 (KCNGR), the Binding affinity under setting [1] came out at 22 Ru.

Turning to 5mer-716 (KINVR), under setting [1], the Binding affinity is 25 Ru.

On to 5mer-717 (KCKFR), for which the Binding affinity under setting [1] amounted to 20 Ru.

For 5mer-718 (RNKKK), the Binding affinity under setting [1] is listed as 19 Ru.

As to 5mer-719 (KISER), the Binding affinity under setting [1] came to 21 Ru.

In the case of 5mer-720 (KDPKR), under setting [1], the Binding affinity is 32 Ru.

Consider 5mer-721 (RYSKK), for which the Binding affinity under setting [1] turned out to be 22 Ru.

Consider 5mer-722 (KNHKK), for which the Binding affinity under setting [1] is recorded as 33 Ru.

Consider 5mer-723 (RASPR), for which the Binding affinity under setting [1] was 22 Ru.

For the substance 5mer-724 (KTTAK), under setting [1], the Binding affinity is 14 Ru.

In the case of 5mer-725 (RNADR), under setting [1], the Binding affinity is 19 Ru.

For the substance 5mer-726 (KATMK), the Binding affinity under setting [1] stood at 33 Ru.

As for 5mer-727 (KMDAR), the Binding affinity under setting [1] came out at 31 Ru.

Regarding 5mer-728 (KPHIK), under setting [1], the Binding affinity is listed as 19 Ru.

As for 5mer-729 (KEPDK), the Binding affinity under setting [1] is recorded as 23 Ru.

Take 5mer-730 (KFCNK): the Binding affinity under setting [1] turned out to be 27 Ru.

5mer-731 (KADHK): the Binding affinity under setting [1] amounted to 18 Ru.

Regarding 5mer-732 (KIMWR), the Binding affinity under setting [1] turned out to be 22 Ru.

For 5mer-733 (KTCDR), the Binding affinity under setting [1] is 23 Ru.

Turning to 5mer-734 (KATER), the Binding affinity under setting [1] amounted to 16 Ru.

Turning to 5mer-735 (RHCER), the Binding affinity under setting [1] was determined as 11 Ru.

As to 5mer-736 (KKHHR), under setting [1], the Binding affinity came out at 24 Ru.

Turning to 5mer-737 (RINVR), the Binding affinity under setting [1] amounted to 13 Ru.

For the substance 5mer-738 (KTPMK), under setting [1], the Binding affinity came out at 29 Ru.

In the case of 5mer-739 (KDCPR), under setting [1], the Binding affinity is reported as 16 Ru.

5mer-740 (RMMGK): the Binding affinity under setting [1] was found to be 21 Ru.

For 5mer-741 (KPTPR), the Binding affinity under setting [1] stood at 14 Ru.

Turning to 5mer-742 (RNSDK), the Binding affinity under setting [1] is reported as 11 Ru.

Take 5mer-743 (KYAFR): under setting [1], the Binding affinity came out at 15 Ru.

With 5mer-744 (KTEAK), under setting [1], the Binding affinity came out at 32 Ru.

Regarding 5mer-745 (RMEIK), under setting [1], the Binding affinity stood at 14 Ru.

In the case of 5mer-746 (RMTVK), under setting [1], the Binding affinity was 26 Ru.

Take 5mer-747 (RKTDK): under setting [1], the Binding affinity was 31 Ru.

For the substance 5mer-748 (REPMK), the Binding affinity under setting [1] was 12 Ru.

For 5mer-749 (KHTWR), the Binding affinity under setting [1] is 24 Ru.

Turning to 5mer-750 (KEADK), the Binding affinity under setting [1] was determined as 13 Ru.

For the substance 5mer-751 (RYMMR), the Binding affinity under setting [1] amounted to 20 Ru.

As to 5mer-752 (KAWVK), the Binding affinity under setting [1] is listed as 26 Ru.

As for 5mer-753 (RKTPK), under setting [1], the Binding affinity worked out at 30 Ru.

Consider 5mer-754 (RKNER), for which the Binding affinity under setting [1] is on record as 29 Ru.

On to 5mer-755 (KNWDR), for which the Binding affinity under setting [1] is 15 Ru.

For the substance 5mer-756 (RCDWR), the Binding affinity under setting [1] stood at 18 Ru.

Turning to 5mer-757 (KYCMR), the Binding affinity under setting [1] amounted to 17 Ru.

Regarding 5mer-758 (KCDFK), the Binding affinity under setting [1] came to 30 Ru.

Regarding 5mer-759 (KHKMR), under setting [1], the Binding affinity is 17 Ru.

As to 5mer-760 (RIWAR), the Binding affinity under setting [1] was 19 Ru.

Turning to 5mer-761 (RMPWR), under setting [1], the Binding affinity turned out to be 31 Ru.

5mer-762 (KMPER): the Binding affinity under setting [1] stood at 21 Ru.

Take 5mer-763 (RCHVR): the Binding affinity under setting [1] is given as 30 Ru.

Take 5mer-764 (KTWPK): the Binding affinity under setting [1] stood at 19 Ru.

On to 5mer-765 (RNEFR), for which the Binding affinity under setting [1] worked out at 12 Ru.

Take 5mer-766 (RNMEK): the Binding affinity under setting [1] turned out to be 30 Ru.

Regarding 5mer-767 (RFHFK), the Binding affinity under setting [1] is on record as 12 Ru.

With 5mer-768 (RDSWR), under setting [1], the Binding affinity is on record as 11 Ru.

5mer-769 (KTEWK): the Binding affinity under setting [1] amounted to 32 Ru.

Regarding 5mer-770 (KKPFR), the Binding affinity under setting [1] worked out at 11 Ru.

Turning to 5mer-771 (RKWVK), under setting [1], the Binding affinity worked out at 24 Ru.

Turning to 5mer-772 (KYWFK), the Binding affinity under setting [1] is listed as 11 Ru.

Turning to 5mer-773 (RPNMR), the Binding affinity under setting [1] was determined as 25 Ru.

5mer-774 (RTCDR): the Binding affinity under setting [1] was 25 Ru.

As for 5mer-775 (RHTVK), the Binding affinity under setting [1] is 23 Ru.

Consider 5mer-776 (RCDFR), for which the Binding affinity under setting [1] is 17 Ru.

On to 5mer-777 (RYNWK), for which the Binding affinity under setting [1] is 28 Ru.

Regarding 5mer-778 (KKDHK), under setting [1], the Binding affinity was 24 Ru.

With 5mer-779 (KYPPR), under setting [1], the Binding affinity is 21 Ru.

On to 5mer-780 (RDSHK), for which the Binding affinity under setting [1] amounted to 27 Ru.

In the case of 5mer-781 (RIDPR), the Binding affinity under setting [1] was found to be 28 Ru.

With 5mer-782 (KANAR), the Binding affinity under setting [1] amounted to 32 Ru.

Turning to 5mer-783 (KCKVR), the Binding affinity under setting [1] was found to be 29 Ru.

Regarding 5mer-784 (RACEK), the Binding affinity under setting [1] is listed as 21 Ru.

For the substance 5mer-785 (KPTIR), under setting [1], the Binding affinity is recorded as 31 Ru.

For 5mer-786 (RFNKK), the Binding affinity under setting [1] stood at 29 Ru.

Regarding 5mer-787 (KDNIR), the Binding affinity under setting [1] amounted to 17 Ru.

5mer-788 (KYHGK): under setting [1], the Binding affinity came to 16 Ru.

As for 5mer-789 (KFWIR), under setting [1], the Binding affinity was found to be 12 Ru.

As for 5mer-790 (REAGK), the Binding affinity under setting [1] stood at 33 Ru.

On to 5mer-791 (KTKMR), for which the Binding affinity under setting [1] worked out at 26 Ru.

5mer-792 (RMEKK): under setting [1], the Binding affinity was 31 Ru.

5mer-793 (KKPHR): under setting [1], the Binding affinity was 19 Ru.

As to 5mer-794 (KEAPK), under setting [1], the Binding affinity was 20 Ru.

In the case of 5mer-795 (RTKKR), the Binding affinity under setting [1] was found to be 20 Ru.

5mer-796 (KNWVR): the Binding affinity under setting [1] stood at 17 Ru.

With 5mer-797 (KETHK), the Binding affinity under setting [1] was 15 Ru.

For 5mer-798 (RETMK), under setting [1], the Binding affinity is reported as 13 Ru.

For 5mer-799 (KDKPR), the Binding affinity under setting [1] is 24 Ru.

As to 5mer-800 (KEAPR), the Binding affinity under setting [1] was found to be 29 Ru.

On to 5mer-801 (KFHGR), for which the Binding affinity under setting [1] came to 20 Ru.

Consider 5mer-802 (RITVR), for which the Binding affinity under setting [1] amounted to 27 Ru.

Consider 5mer-803 (RFSDR), for which the Binding affinity under setting [1] is 11 Ru.

For the substance 5mer-804 (RNTIR), the Binding affinity under setting [1] is reported as 20 Ru.

For 5mer-805 (RPTNR), the Binding affinity under setting [1] turned out to be 27 Ru.

5mer-806 (RKMFR): the Binding affinity under setting [1] is recorded as 17 Ru.

In the case of 5mer-807 (RKNKK), the Binding affinity under setting [1] is 20 Ru.

In the case of 5mer-808 (KFCIR), under setting [1], the Binding affinity is recorded as 13 Ru.

Consider 5mer-809 (RKSGK), for which the Binding affinity under setting [1] was found to be 15 Ru.

Regarding 5mer-810 (KFHKK), the Binding affinity under setting [1] is 11 Ru.

For 5mer-811 (KMTMR), the Binding affinity under setting [1] was determined as 32 Ru.

5mer-812 (KTEGR): for the setting “5mer Bottom sequence”, the Binding affinity was found to be 27 Ru.

On to 5mer-813 (RAHVR), for which, for the setting “5mer Bottom sequence”, the Binding affinity came to 21 Ru.

Turning to 5mer-814 (RITMR), the Binding affinity (5mer Bottom sequence) came to 11 Ru.

For the substance 5mer-815 (RKDHR), for the setting “5mer Bottom sequence”, the Binding affinity worked out at 27 Ru.

For the substance 5mer-816 (RKPIK), the Binding affinity (5mer Bottom sequence) is 26 Ru.

5mer-817 (RHKDR): for the setting “5mer Bottom sequence”, the Binding affinity was 23 Ru.

Turning to 5mer-818 (KHWHR), the Binding affinity (5mer Bottom sequence) is recorded as 12 Ru.

Turning to 5mer-819 (RNTIK), where the note is “5mer Bottom sequence”, the Binding affinity is 19 Ru.

In the case of 5mer-820 (RIMHK), for the setting “5mer Bottom sequence”, the Binding affinity is 28 Ru.

In the case of 5mer-821 (RESDR), where the note is “5mer Bottom sequence”, the Binding affinity is given as 12 Ru.
